Molecular target: T1, hiR2-FL-L589P-T7 (human, UniProt Q6PJF5 1-856)
T1 sequence: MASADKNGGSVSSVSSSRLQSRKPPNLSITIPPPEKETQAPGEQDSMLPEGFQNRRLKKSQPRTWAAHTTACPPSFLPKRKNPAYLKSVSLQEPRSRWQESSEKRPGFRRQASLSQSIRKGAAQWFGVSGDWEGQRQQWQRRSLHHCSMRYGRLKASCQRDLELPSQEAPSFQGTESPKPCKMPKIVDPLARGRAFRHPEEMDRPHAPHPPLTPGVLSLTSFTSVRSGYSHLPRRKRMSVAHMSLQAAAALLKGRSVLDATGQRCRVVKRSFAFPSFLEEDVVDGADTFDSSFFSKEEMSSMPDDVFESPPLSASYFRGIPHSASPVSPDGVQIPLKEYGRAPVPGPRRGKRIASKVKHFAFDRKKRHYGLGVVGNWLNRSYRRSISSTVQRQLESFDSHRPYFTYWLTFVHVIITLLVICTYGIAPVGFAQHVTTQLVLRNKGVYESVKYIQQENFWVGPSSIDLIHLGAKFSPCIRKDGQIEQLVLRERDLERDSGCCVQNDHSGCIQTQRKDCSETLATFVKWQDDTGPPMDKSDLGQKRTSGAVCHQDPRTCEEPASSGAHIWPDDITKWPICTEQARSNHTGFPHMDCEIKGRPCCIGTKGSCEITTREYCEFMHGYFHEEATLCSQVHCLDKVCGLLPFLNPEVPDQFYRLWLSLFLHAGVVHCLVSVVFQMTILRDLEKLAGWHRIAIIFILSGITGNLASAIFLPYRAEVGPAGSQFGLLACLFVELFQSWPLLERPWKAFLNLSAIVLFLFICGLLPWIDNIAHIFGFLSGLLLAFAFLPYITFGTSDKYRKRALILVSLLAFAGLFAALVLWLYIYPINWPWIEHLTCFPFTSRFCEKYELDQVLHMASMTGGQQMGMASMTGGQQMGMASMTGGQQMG
Assay: FACS, MEF-DKO cells, 3 µg/ml
In short: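 MEF-DKO cells expressing T7-tagged full-length hiR2 point mutants were stained on ice for 1 h with purified antibodies at 3 μg/ml in FACS buffer. Detection used PE-conjugated goat anti-mouse IgG F(ab′)2 (1:100, 1 h on ice), read by flow cytometry; buffer-only wells served as controls.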

B1: antibody 48 (antibody, V domains shown)
VH: QVQLQQSGTELVRPGTSVKVSCKASGYAFTNYLIEWVKQRPGQGLEWIGVINPGSGFTKYNEKFKGKATLTADKSSSTVYMHLSSLTSEDSAVYFCARGLYRAMDYWGQGTSVTVSS
VL: DIQMTQSPASQSASLGESVTITCLASQTIATWLAWYQQKPGKSPQLLIYGATTLADGVPSRFSGGGSGTKFSFKISSLQAEDFVSYYCQQLYSTPYTFGGGTKLEIK
notes: mouse IgG, kappa light chain; also called clone #48; purified antibody 48
B1 was tested. Which “loss of binding vs wild type” value did it give?
Its value is ≥ 60%.

B2: antibody 50 (antibody, V domains shown)
VH: QVQLQQSGAELVRPGASVKVSCKASGYAFSNYLIEWVKQRPGQGLEWIGVINPGSGFTKYNEKFKGKATLTADKSSSTAYMQLSSLTSEDSAVYFCARGLYRAMDYWGQGTSVTVSS
VL: DIQMTQSPASQSASLGESVTITCLASQTIGTWLAWYQQKPGKSPQLLIYAAASLADGVPSRFSGGGSGTKFSFKISSLQAEDFVNYYCQQIYSTPYTFGGGTKLEIK
notes: mouse IgG, kappa light chain; also called clone #50; purified antibody 50
With B2 as the binder, how does the “loss of binding vs wild type” value read?
Its value is ≥ 95%.
